Laboratory results from US20150037868.

How the values were obtained:
[1] = biological target: T1, wild-type TktA protein (transketolase A of Escherichia coli)
T1 chain: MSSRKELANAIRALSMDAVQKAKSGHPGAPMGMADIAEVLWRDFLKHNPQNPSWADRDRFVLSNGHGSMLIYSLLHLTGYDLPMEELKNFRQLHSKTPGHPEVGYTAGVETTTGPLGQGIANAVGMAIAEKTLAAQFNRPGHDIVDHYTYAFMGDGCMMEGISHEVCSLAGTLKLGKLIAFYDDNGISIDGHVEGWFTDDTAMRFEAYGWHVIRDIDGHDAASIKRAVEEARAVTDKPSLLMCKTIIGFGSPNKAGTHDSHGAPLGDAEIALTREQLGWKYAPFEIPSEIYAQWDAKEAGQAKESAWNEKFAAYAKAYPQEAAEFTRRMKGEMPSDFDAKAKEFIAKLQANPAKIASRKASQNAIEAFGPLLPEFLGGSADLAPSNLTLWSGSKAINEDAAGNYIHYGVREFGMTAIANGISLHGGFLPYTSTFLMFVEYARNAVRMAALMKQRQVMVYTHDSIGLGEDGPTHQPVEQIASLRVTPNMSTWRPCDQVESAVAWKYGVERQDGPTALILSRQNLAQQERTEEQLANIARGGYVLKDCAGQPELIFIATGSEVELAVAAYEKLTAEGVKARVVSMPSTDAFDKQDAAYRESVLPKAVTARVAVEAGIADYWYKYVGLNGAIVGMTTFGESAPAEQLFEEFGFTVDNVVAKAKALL

[2] = biological target: T2, TktA variant with HRV protease cleavage motif inserted after amino acid 636
T2 chain: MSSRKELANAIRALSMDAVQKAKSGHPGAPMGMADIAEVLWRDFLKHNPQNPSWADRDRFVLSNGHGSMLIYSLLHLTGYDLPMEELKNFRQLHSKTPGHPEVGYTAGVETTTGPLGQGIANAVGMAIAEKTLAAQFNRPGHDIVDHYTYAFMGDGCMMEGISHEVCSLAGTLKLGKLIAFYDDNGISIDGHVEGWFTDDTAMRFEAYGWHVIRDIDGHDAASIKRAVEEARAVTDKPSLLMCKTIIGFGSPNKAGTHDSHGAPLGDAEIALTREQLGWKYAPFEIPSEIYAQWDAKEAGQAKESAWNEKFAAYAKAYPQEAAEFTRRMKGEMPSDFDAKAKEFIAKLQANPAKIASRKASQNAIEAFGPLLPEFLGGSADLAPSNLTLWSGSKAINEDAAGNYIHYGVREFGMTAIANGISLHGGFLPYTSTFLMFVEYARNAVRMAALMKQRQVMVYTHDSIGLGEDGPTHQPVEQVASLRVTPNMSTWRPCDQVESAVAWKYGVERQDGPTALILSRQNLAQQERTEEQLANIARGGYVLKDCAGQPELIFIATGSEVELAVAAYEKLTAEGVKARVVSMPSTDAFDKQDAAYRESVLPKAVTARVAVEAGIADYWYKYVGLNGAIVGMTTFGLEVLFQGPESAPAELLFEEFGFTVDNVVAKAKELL

[3] = biological target: T3, TktA variant with HRV protease cleavage motif inserted after amino acid 640
T3 chain: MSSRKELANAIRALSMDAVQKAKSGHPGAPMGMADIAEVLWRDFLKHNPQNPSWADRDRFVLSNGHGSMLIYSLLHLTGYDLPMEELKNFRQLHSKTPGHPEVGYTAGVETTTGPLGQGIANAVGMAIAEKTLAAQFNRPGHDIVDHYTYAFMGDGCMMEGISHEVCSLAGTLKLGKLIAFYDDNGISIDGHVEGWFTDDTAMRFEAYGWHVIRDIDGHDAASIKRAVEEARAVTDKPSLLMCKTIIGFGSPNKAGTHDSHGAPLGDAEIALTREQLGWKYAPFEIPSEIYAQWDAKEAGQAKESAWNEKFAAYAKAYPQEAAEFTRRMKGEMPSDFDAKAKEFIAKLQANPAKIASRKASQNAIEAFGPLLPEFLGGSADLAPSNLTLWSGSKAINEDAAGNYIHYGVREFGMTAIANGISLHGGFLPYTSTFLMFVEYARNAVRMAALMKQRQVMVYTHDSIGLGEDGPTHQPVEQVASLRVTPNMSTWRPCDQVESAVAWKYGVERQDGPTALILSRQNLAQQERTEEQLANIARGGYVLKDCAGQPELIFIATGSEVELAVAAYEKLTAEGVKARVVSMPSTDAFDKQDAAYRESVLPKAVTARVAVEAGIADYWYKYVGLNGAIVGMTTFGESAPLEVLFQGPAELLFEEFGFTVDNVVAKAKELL

[4] = biological target: T4, TktA variant with HRV protease cleavage motif inserted after amino acid 638
T4 chain: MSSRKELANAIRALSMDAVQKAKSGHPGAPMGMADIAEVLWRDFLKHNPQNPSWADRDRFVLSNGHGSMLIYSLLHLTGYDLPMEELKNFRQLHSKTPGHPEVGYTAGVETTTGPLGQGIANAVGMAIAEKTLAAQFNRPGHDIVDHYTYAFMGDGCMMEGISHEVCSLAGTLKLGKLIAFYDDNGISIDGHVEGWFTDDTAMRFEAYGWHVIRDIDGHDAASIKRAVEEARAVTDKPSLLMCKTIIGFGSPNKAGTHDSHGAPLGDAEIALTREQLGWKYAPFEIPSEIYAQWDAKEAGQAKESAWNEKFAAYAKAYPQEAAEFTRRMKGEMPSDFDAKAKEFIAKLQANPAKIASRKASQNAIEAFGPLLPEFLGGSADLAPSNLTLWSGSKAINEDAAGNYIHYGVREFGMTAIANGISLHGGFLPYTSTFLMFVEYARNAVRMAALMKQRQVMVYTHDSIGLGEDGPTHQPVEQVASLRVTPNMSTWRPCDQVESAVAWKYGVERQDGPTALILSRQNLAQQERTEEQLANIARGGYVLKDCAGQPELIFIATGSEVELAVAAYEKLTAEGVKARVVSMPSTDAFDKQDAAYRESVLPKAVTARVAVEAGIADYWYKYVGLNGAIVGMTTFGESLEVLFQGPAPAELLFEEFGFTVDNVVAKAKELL

[5] = biological target: T5, TktA variant with HRV protease cleavage motif inserted after amino acid 635
T5 chain: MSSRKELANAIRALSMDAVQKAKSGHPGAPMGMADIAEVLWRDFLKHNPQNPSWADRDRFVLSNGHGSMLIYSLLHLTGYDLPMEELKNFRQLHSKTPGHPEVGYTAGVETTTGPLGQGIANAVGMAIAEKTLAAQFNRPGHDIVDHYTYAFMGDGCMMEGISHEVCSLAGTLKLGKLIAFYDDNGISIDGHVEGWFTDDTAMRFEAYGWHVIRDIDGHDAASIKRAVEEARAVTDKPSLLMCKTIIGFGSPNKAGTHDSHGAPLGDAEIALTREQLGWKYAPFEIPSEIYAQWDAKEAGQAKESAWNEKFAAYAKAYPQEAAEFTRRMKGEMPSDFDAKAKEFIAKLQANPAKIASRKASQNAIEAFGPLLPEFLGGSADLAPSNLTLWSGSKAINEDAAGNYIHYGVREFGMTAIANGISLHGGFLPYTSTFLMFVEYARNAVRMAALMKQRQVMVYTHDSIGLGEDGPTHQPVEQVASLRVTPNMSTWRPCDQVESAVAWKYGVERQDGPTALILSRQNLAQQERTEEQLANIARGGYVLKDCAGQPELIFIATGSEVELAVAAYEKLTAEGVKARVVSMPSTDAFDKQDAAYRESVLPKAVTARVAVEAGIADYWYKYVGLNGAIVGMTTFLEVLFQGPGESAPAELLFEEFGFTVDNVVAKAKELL

[6] = biological target: T6, TktA variant with HRV protease cleavage motif inserted after amino acid 637
T6 chain: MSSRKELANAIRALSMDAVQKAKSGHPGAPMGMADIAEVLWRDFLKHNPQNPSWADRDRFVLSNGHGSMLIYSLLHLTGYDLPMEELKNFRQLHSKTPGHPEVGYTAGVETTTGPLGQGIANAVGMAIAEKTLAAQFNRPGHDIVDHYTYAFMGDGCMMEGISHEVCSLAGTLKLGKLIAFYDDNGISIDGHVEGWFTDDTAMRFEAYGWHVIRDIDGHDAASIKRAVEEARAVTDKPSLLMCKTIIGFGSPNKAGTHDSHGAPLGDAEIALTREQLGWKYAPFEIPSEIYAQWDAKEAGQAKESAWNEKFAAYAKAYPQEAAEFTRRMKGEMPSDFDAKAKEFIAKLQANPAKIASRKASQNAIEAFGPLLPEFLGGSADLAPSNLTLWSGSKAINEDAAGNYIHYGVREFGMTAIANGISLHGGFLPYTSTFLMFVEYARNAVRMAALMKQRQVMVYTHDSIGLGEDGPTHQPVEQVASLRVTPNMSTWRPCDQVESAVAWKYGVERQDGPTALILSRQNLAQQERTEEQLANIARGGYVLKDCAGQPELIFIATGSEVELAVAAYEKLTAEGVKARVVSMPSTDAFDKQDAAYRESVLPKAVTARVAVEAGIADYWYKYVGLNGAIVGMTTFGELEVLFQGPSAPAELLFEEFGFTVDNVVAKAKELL

[7] = biological target: Pgi-HRV-I526 (Pgi with HRV 3C recognition sequence inserted after amino acid 526)

B1: tobacco etch virus (TEV) protease (protein)
chain: GESLFKGPRDYNPISSTICHLTNESDGHTTSLYGIGFGPFIITNKHLFRRNNGTLLVQSLHGVFKVKNTTTLQQHLIDGRDMIIIRMPKDFPPFPQKLKFREPQREERICLVTTNFQTKSMSSMVSDTSCTFPSSDGIFWKHWIQTKDGQCGSPLVSTRDGFIVGIHSASNFTNTNNYFTSVPKNFMELLTNQEAQQWVSGWRLNADSVLWGGHKVFMSKPEEPFQPVKEATQLMNELVYSQ
Which growth rate in minimal glucose medium, TEV protease control +inducer (2% arabinose, pGLC219); -inducer value 0.55 [1] does the source give for B1 here?
The growth rate in minimal glucose medium, TEV protease control +inducer (2% arabinose, pGLC219); -inducer value 0.55 was 0.53.

And the growth rate in minimal glucose medium, TEV protease control +inducer (2% arabinose, pGLC219); -inducer value 0.39 [2]?
The growth rate in minimal glucose medium, TEV protease control +inducer (2% arabinose, pGLC219); -inducer value 0.39 was 0.42.

And the growth rate in minimal glucose medium, TEV protease control +inducer (2% arabinose, pGLC219); -inducer value 0.48 [3]?
Its growth rate in minimal glucose medium, TEV protease control +inducer (2% arabinose, pGLC219); -inducer value 0.48 is 0.52.

What about the growth rate in minimal glucose medium, TEV protease control +inducer (2% arabinose, pGLC219); -inducer value 0.18 [4] of the same protein?
The growth rate in minimal glucose medium, TEV protease control +inducer (2% arabinose, pGLC219); -inducer value 0.18 was 0.18.

What about the growth rate in minimal glucose medium, TEV protease control +inducer (2% arabinose, pGLC219); -inducer value 0.52 [5] of the same protein?
The growth rate in minimal glucose medium, TEV protease control +inducer (2% arabinose, pGLC219); -inducer value 0.52 was 0.52.

And the growth rate in minimal glucose medium, TEV protease control +inducer (2% arabinose, pGLC219); -inducer value 0.46 [6]?
Its growth rate in minimal glucose medium, TEV protease control +inducer (2% arabinose, pGLC219); -inducer value 0.46 is 0.46.

B2: HRV 3C protease with an N-terminal OmpA leader sequence (periplasmic) (protein)
chain: GPEEEFGMSLIKHNSCVITTENGKFTGLGVYDRFVVVPTHADPGKEIQVDGITTKVIDSYDLYNKNGIKLEITVLKLDRNEKFRDIRRYIPNNEDDYPNCNLALLANQPEPTIINVGDVVSYGNILLSGNQTARMLKYSYPTKSGYCGGVLYKIGQVLGIHVGGNGRDGFSAMLLRSYFTDVQ
B2 was tested. Which Pgi activity in clarified lysate after 2 h IPTG induction of periplasmically sequestered HRV 3C protease (pGLC089, OmpA leader); no-protease strain 1.3 (µmol/min/mg total protein) [7] did it give?
Its Pgi activity in clarified lysate after 2 h IPTG induction of periplasmically sequestered HRV 3C protease (pGLC089, OmpA leader); no-protease strain 1.3 (µmol/min/mg total protein) is 0.01.

B3: HRV 3C protease (codon-optimized for expression in E. coli), cytoplasmic (protein)
chain: MGPEEEFGMSLIKHNSCVITTENGKFTGLGVYDRFVVVPTHADPGKEIQVDGITTKVIDSYDLYNKNGIKLEITVLKLDRNEKFRDIRRYIPNNEDDYPNCNLALLANQPEPTIINVGDVVSYGNILLSGNQTARMLKYSYPTKSGYCGGVLYKIGQVLGIHVGGNGRDGFSAMLLRSYFTDVQ
B3 was tested. Which growth rate in minimal glucose medium, HRV protease +inducer (2% arabinose, pGLC217); -inducer value 0.60 [1] did it give?
Its growth rate in minimal glucose medium, HRV protease +inducer (2% arabinose, pGLC217); -inducer value 0.60 is 0.57.

And the growth rate in minimal glucose medium, HRV protease +inducer (2% arabinose, pGLC217); -inducer value 0.43 [2]?
The growth rate in minimal glucose medium, HRV protease +inducer (2% arabinose, pGLC217); -inducer value 0.43 was 0.17.

And the growth rate in minimal glucose medium, HRV protease +inducer (2% arabinose, pGLC217); -inducer value 0.55 [3]?
Its growth rate in minimal glucose medium, HRV protease +inducer (2% arabinose, pGLC217); -inducer value 0.55 is 0.34.

And the growth rate in minimal glucose medium, HRV protease +inducer (2% arabinose, pGLC217); -inducer value 0.13 [4]?
Its growth rate in minimal glucose medium, HRV protease +inducer (2% arabinose, pGLC217); -inducer value 0.13 is 0.08.

What about the Pgi activity in clarified lysate after 2 h IPTG induction of cytoplasmic HRV 3C protease (pGLC221, no OmpA leader); no-protease strain 1.3 (µmol/min/mg total protein) [7] of the same protein?
The Pgi activity in clarified lysate after 2 h IPTG induction of cytoplasmic HRV 3C protease (pGLC221, no OmpA leader); no-protease strain 1.3 (µmol/min/mg total protein) was -0.01.

And the growth rate in minimal glucose medium, HRV protease +inducer (2% arabinose, pGLC217); -inducer value 0.58 [5]?
Its growth rate in minimal glucose medium, HRV protease +inducer (2% arabinose, pGLC217); -inducer value 0.58 is 0.47.

What about the growth rate in minimal glucose medium, HRV protease +inducer (2% arabinose, pGLC217); -inducer value 0.40 [6] of the same protein?
The growth rate in minimal glucose medium, HRV protease +inducer (2% arabinose, pGLC217); -inducer value 0.40 was 0.11.
